From paper PMC2923621, “Gliadin Peptide P31-43 Localises to Endocytic Vesicles and Interferes with Their Maturation” (PLoS ONE, 2010) come the findings set out here.

One assay has as its target T1, Hrs (Homo sapiens, UniProt O14964).
T1 construct: to quantify the amount of endogenous Hrs present in each compartment; endogenous in cells; host or cells: CaCo-2
Nature of the assay: Subcellular fractionation and immunoblotting of endogenous Hrs. Type of assay: cell-based. The conditions noted are these: CaCo-2 cells, western blot, three independent experiments. On the procedure:
Near-confluent Caco2 cells in a 90-mm dish were incubated with EGF and P31-43 at various times, after homogenization (10 mM Tris-HCl [pH 7.4], 1 mM EDTA, and the mixture of phosphatase and protease inhibitors) the nuclear fraction was eliminated by centrifugation. The soluble cytosolic and the membrane fraction were obtained by ultracentrifugation. Electrophoresis and immunoblotting were performed as described elsewhere. Briefly the proteins of the soluble cytosolic and the membrane fractions were separated by SDS-PAGE and incubated with anti-Hrs mouse monoclonal antibody (Alexis, Vinci-Biochem, Florence, Italy) or anti-EGFR rabbit polyclonal antibody (Cell Signaling Celbio, Milan Italy) or anti-tubulin mouse monoclonal antibody (SIGMA-Aldrich, Milan, Italy). Densitometric analysis was performed as before.

The subject of a further assay is CaCo-2 cells. The assay can be described thus: BrdU incorporation with or without Hrs-EGFP transfection. The conditions noted are these: serum starved 0.1% FCS, mean ± SD of three independent experiments. Type of assay: cell-based. Here is the method: We used the lipofectamine kit (Invitrogen, San Giuliano Milanese, Italy) according to the manufacturer's instructions to transfect all plasmids (Rab5-EGFP, Rab7-EGFP, Hrs-EGFP and Hrs-Ha). Briefly, CaCo-2 cells seeded on coverslips for 48 h were transfected with the plasmids for 16 h. The next day, transfected cells were pulsed and chased as described below or stained for Bromodeoxyuridine (BrdU) with a monoclonal antibody (Sigma-Aldrich, Milan, Italy) and total nuclei were identified by Hoechst staining. BrdU incorporation was performed as described elsewhere, briefly, CaCo-2 cells seeded on coverslips were transfected with Hrs-EGFP and serum starved in DMEM 0.1% foetal calf serum, antibiotics and glutamine for 30–48 h followed by 24 h treatment with gliadin peptides and/or growth factors. BrdU ([…], Boehringer) was added for one hour before fixing the samples. The cells fixed with paraformaldehyde and permeabilised with triton, were stained for BrdU as described and observed at the miscroscope (Axiophot microscope, Carl Zeiss MicroImaging, Inc.). Greater than 100 HRS-EGFP positive cells in several fields were evaluated for BrdU incorporation in each sample. The number of HRS-EGFP/BrdU positive cells was expressed as a proportion of the total Hoechst positive nuclei.

T1 sequence (O14964 whole entry): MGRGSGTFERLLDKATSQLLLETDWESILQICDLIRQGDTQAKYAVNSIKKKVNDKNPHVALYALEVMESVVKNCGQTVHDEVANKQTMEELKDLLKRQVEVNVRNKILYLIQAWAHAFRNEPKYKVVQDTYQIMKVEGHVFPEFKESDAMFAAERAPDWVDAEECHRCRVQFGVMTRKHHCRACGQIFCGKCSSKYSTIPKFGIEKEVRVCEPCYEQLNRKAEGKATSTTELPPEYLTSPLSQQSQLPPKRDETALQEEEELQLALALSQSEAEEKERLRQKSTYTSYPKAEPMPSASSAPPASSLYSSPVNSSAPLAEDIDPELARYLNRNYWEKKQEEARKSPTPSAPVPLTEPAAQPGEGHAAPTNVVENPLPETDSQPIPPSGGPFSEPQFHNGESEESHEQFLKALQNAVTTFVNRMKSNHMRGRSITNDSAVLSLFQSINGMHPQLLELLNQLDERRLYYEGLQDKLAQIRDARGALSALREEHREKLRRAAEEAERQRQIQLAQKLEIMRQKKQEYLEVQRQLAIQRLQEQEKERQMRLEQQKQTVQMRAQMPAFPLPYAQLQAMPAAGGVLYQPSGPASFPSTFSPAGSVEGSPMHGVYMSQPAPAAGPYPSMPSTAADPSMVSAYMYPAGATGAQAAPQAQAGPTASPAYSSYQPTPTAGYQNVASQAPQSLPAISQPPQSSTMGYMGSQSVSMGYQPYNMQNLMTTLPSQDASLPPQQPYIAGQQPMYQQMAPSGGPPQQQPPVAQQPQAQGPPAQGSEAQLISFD

Turning to “EGF: growth factor used at 100 nanograms/ml as positive control”, the “Amount of Hrs in the membrane fraction” value with Hrs (normalised to EGFR) is recorded as “did not affect Hrs concentration in either compartment”. Also, in the assay with Hrs (normalised to tubulin), the “Amount of Hrs in the cytosolic fraction” value is “did not affect Hrs concentration in either compartment”. In addition, the “BrdU incorporation (BrdU incorporating cells as percent of total cells)” value in the assay with CaCo-2 cells (CaCo-2 cells not expressing Hrs, 24 h treatment (peptides 70 micrograms/ml, EGF 100 nanograms/ml)) was 68.99%±7; in the assay with CaCo-2 cells (Hrs-EGFP-transfected (Hrs-expressing) CaCo-2 cells, 24 h treatment) it was 66.25%±9.53%.
